The source of these data is patent US11324803B2, “Methods and compositions for treatment of Gaucher Disease via modulation of C5a receptor” (Children's Hospital Medical Center, priority 2015, dated 2022).

Experiment [1] deals with T1, C5aR1 (Homo sapiens, UniProt P21730).
T1 sequence (P21730 1-350): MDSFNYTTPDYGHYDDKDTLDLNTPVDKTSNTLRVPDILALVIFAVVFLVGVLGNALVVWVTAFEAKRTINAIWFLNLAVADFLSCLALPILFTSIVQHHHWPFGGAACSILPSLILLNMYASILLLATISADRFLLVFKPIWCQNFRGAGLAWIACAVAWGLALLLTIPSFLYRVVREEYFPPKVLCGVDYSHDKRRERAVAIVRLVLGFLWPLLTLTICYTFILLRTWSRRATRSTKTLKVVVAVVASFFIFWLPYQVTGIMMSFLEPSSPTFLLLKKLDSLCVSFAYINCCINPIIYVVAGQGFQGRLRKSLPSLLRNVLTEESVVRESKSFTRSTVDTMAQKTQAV
As to conditions: cited from earlier work.

The next experiment addresses T2, mouse C5aR1 (Mus musculus, UniProt P30993).
T2 sequence (P30993 1-351): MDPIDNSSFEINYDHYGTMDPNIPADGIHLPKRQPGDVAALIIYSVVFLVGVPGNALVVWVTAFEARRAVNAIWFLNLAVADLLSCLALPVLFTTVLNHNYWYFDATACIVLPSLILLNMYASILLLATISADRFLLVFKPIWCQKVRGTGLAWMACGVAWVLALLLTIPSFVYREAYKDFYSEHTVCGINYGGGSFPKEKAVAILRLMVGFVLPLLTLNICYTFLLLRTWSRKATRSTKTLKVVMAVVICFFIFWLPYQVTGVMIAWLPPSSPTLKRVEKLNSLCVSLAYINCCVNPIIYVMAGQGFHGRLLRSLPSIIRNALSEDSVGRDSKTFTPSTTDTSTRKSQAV
To be noted: cited from earlier work.

The target in the next experiment is human C5aR2 (C5L2) (Homo sapiens, UniProt Q9P296). As to conditions: cited from earlier work.
Experiment [2] deals with T1, C5aR1. The experiment in a line: GC-IC-induced CCL18 and pro-inflammatory cytokine production in CBE-treated human MΦ-like cell line U937 with C5aRA. The class given is cell-based. Set-up: endogenous in cells; host or cells: U937 (human macrophage-like cell line), CBE-treated.
The test system of experiment [3] is C5a-induced effector functions. As to conditions: cited from earlier work.
Setting [4] is: CBE-treated U937 cells, GC-IC stimulation, ELISA.

Chain of human C5aR2 (C5L2) (Q9P296 whole entry): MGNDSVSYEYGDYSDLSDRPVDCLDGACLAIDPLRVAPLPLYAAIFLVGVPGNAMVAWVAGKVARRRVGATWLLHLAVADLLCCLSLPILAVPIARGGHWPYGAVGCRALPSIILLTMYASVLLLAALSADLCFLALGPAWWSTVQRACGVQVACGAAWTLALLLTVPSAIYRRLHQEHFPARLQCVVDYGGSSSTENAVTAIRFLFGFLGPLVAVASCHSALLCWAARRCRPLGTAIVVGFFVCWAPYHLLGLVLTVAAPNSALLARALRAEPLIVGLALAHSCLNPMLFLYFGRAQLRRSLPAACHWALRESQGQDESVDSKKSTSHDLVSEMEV

B1: Thr Leu Gln Lys Lys Ile Glu Glu Ile Ala Ala Lys Tyr Lys His Ser Val Val Lys Lys Cys Cys Tyr Asp Gly Ala Ala Val Asn Asn Asp Glu Thr Cys Glu Gln Arg Ala Ala Arg Ile Ser Leu Gly Pro Arg Cys Ile Lys Ala … (protein)
chain: TLQKKIEEIAAKYKHSVVKKCCYDGAAVNNDETCEQRAARISLGPRCIKAFTECCVVASQLRANISFKRS
modifications: mutant C5a-(1-66, Cys27A1a) -A8B-Del. 71-73 of human C5a
notes: positions 27 and 68-71 of human C5a mutated and positions 72-74 deleted
On to B1, for which, in the experiment with C5aR1 [1], the “affinity to bind human C5aR1” value is given as “high affinity”. Moreover, in the experiment with mouse C5aR1, the “affinity to bind mouse C5aR1” value was “high affinity”. Besides, the “affinity to bind human C5aR2 (C5L2)” value in the experiment with human C5aR2 (C5L2) is reported as “high affinity”. Moreover, in the experiment with C5aR1 [2] (setting [4]), the “GC-IC-induced production of CCL18” value is listed as “abolished”, the “GC-IC-induced production of IL1β” value was “abolished”, the “GC-IC-induced production of IL6” value is given as “abolished” and the “GC-IC-induced production of IL23” value is listed as “abolished”. Besides, the “GC-IC-induced production of TNFα” value in the experiment with C5aR1 [2] (setting [4]) was “abolished”. In the experiment with C5aR1 [2] (CBE-treated U937 cells, GC-IC stimulation, ELISA, listed as C5aR antagonist A8^Δ71-73), the “GC-IC-induced production of CCL18” value is reported as “marked reduction”. Further, in the experiment with C5aR1 [2] (human model of Gaucher disease), the “MΦs, DC and T cells mediated immune inflammation” value is “significantly reduces”. The C5a-induced effector functions result in experiment [3] is given as “inhibit”.
